From patent publication US20090054337A1

Target: natriuretic peptide receptor-B (NPR-B) on human aortic endothelial cells (human) (UniProt P20594)
Assay: cell-based or functional assay

Sequence of UniProt P20594 (P20594 23-1047): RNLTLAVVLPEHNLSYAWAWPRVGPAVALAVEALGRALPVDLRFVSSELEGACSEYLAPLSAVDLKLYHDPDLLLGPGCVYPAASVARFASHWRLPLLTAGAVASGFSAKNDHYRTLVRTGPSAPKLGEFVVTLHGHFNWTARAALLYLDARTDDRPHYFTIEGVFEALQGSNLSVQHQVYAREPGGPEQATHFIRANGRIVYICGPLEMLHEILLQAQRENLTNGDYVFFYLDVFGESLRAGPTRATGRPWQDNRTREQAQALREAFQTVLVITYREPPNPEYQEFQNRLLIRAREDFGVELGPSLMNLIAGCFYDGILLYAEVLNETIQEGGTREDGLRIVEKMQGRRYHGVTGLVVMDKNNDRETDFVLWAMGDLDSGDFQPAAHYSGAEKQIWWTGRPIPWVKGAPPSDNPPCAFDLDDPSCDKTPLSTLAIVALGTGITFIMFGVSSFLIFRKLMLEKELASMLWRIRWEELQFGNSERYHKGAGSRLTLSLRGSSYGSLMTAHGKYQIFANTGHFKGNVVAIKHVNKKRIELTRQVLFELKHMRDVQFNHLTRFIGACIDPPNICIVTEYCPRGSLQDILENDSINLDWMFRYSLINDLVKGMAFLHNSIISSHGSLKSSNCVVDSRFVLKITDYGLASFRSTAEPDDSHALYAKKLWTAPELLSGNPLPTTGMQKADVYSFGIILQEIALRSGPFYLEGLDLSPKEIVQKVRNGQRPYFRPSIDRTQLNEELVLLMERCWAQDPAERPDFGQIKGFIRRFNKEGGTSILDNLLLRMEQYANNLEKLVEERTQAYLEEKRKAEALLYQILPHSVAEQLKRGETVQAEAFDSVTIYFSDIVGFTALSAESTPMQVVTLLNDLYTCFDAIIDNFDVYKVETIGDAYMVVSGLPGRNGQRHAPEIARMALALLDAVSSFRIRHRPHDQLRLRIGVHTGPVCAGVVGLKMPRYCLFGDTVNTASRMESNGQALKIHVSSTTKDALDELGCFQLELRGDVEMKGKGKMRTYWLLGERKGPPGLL

“human CNP (from UniProt P23582 74-126) (peptide)” was tested, and the cGMP in HAEC with 10^-6 M CNP in the presence of the NPR-B antibody (1:100) was 0.08 pmol/mL and the cGMP in HAEC with 10^-6 M CNP, no antibody was 0.17 pmol/mL.
